Test results reported in patent publication US5906819.

What was measured:
[1] = molecular target: T1, myosin light chain (chicken) (UniProt P02612)
T1 sequence: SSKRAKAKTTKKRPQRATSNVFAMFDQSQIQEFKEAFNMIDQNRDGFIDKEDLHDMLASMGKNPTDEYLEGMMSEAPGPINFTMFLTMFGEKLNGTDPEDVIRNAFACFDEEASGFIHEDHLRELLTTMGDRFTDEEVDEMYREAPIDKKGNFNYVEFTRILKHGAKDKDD

phosphorylation of intact myosin (mol phosphorylation per 1 mol myosin) (intact myosin (chicken)): 1
specific activity with S6 peptide as a substrate (mol per minute per 1 mol GST-Rho-kinase) (S6 peptide): 41
apparent Km for myosin light chain [1]: 0.91 µM
B1: GST-Rho-kinase (enzyme)
chain: PTGKMPGAPEAVSGDGAGASRQRKLEALIRDPRSPINVESLLDGLNPLVLDLDFPALRKNKNIDNFLNRYEKIVKKIRGLQMKAEDYDVVKVIGRGAFGEVQLVRHKASQKVYAMKLLSKFEMIKRSDSAFFWEERDIMAFANSPWVVQLFCAFQDDKYLYMVMEYMPGGDLVNLMSNYDVPEKWAKFYTAEVVLALDAIHSMGLIHRDVKPDNMLLDKHGHLKLADFGTCMKMDETGMVHCDTAVGTPDYISPEVLKSQGGDGYYGRECDWWSVGVFLFEMLVGDTPFYADSLVGTYSKIMDHKNSLCFPEDAEISKHAKNLICAFLTDREVRLGRNGVEEIKQHPFFKNDQWNWDNIRETAAPVVPELSSDIDSSNFDDIEDDKGDVETFPIPKAFVGNQLPFIGFTYYRENLLLSDSPSCKENDSIQSRKNEESQEIQKKLYTLEEHLSTEIQAKEELEQKCKSVNTRLEKVAKELEEEITLRKNVESTLRQLEREKALLQHKNAEYQRKADHEADKKRNLENDVNSLKDQLEDLKKRNQNSQIS
